± gives the standard error. For part of these data: Variants at the floor of the assay were thinned out.
B1: glmS ribozyme (parent)
chain: AUAAAAGCGCCAGAACUACAGAAAUGUAGUUGACGAGGAGGAGGUUUAUCGAAUUUUCGGCGGAUGCCUCCAAA

Experiments:
Conditions in all cases: with glucosamine-6-phosphate
[1] = variants of: B1; assay: kcat; higher = faster cleavage; RNA array
How it was run: (§1)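 Glucosamine-6-phosphate, from 40 μM to 10 mM in HEPES/KCl/Mg(OAc)2 buffer, was flowed over sequenced MiSeq chips carrying barcoded ribozyme variants transcribed in situ by E. coli RNA polymerase. A hybridised Cy3 probe tracked the variants at 37 °C as tiles were imaged over ~14 h. kobs, kcat and KM were obtained by fitting normalised per-tile medians to exponential decays and then applying weighted Michaelis–Menten fits across concentrations.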

[2] = variants of: B1; assay: self-cleavage kobs at 40 uM GlcN6P; higher = faster cleavage; RNA array
How it was run: as §1

[3] = variants of: B1; assay: self-cleavage kobs at 160 uM GlcN6P; higher = faster cleavage; RNA array
How it was run: as §1

[4] = variants of: B1; assay: self-cleavage kobs at 640 uM GlcN6P; higher = faster cleavage; RNA array
How it was run: as §1

[5] = variants of: B1; assay: self-cleavage kobs at 2500 uM GlcN6P; higher = faster cleavage; RNA array
How it was run: as §1

[6] = variants of: B1; assay: self-cleavage kobs at 10000 uM GlcN6P; higher = faster cleavage; RNA array
How it was run: as §1

[7] = variants of: B1; assay: KM; higher = weaker cofactor use; RNA array
How it was run: as §1

Row | Variant | kcat [1] [s⁻¹] | self-cleavage kobs at 40 uM GlcN6P [2] [s⁻¹] | self-cleavage kobs at 160 uM GlcN6P [3] [s⁻¹] | self-cleavage kobs at 640 uM GlcN6P [4] [s⁻¹] | self-cleavage kobs at 2500 uM GlcN6P [5] [s⁻¹] | self-cleavage kobs at 10000 uM GlcN6P [6] [s⁻¹] | KM [7] [µM]
1 | U30G C67A | 0.00145 ± 0.00047 | 6.13e-05 ± 1.3e-05 | 0.000175 ± 3.3e-05 | 0.000561 ± 9.1e-05 | 0.00063 ± 0.00017 | 0.00188 ± 0.00029 | 
2 | U30G G41U | 0.000172 ± 2.3e-05 |  | 3.73e-05 ± 1.4e-05 | 0.000153 ± 3.3e-05 | 0.000149 ± 2.6e-05 | 0.000154 ± 2.4e-05 | 440 ± 190
3 | U30G C70G | 0.000136 ± 7.2e-06 |  |  | 9.18e-05 ± 2.2e-05 | 0.000124 ± 2.3e-05 | 0.000127 ± 1.4e-05 | 439 ± 110
4 | U30G U31G | 0.0304 ± 0.012 | 0.00149 ± 0.00022 |  | 0.0102 ± 0.0017 |  | 0.036 ± 0.0081 | 
5 | U31G C34A G37U C67U | 3.45e-05 ± 1.2e-05 |  |  |  |  |  | 
6 | U31A A42U | 0.000111 ± 8.8e-06 |  |  |  | 5.06e-05 ± 1.3e-05 | 8.19e-05 ± 1.4e-05 | 3380 ± 670
7 | U31A U54A | 0.011 ± 0.003 | 0.000241 ± 4.8e-05 | 0.00112 ± 0.00023 | 0.00342 ± 0.00062 | 0.00508 ± 0.0013 | 0.0126 ± 0.0031 | 1640 ± 590
8 | U31A C50A | 1.34e-05 ± 6.2e-07 | < 1e-05 | < 1e-05 | < 1e-05 |  |  | 605 ± 190
9 | U31A G63U U69G | 3.2e-05 ± 9.9e-06 |  |  |  |  |  | 
10 | U31A C68U | 0.00143 ± 0.00043 |  | 6.73e-05 ± 1.4e-05 | 0.000477 ± 9.5e-05 | 0.000776 ± 0.00018 | 0.00105 ± 0.00019 | 2740 ± 1200
11 | U31A C68A | 2.86e-05 ± 9.3e-06 | < 1e-05 |  |  | 4.06e-05 ± 1.6e-05 |  | 
12 | U31G A33C | 3.39e-05 ± 1.6e-06 |  |  |  |  | 2.4e-05 ± 8.6e-06 | 4180 ± 650
13 | U31G A33U | 0.000102 ± 8.8e-06 |  |  |  | 3.73e-05 ± 1.2e-05 | 7.23e-05 ± 1.2e-05 | 4090 ± 910
14 | U30G C68G | 3.09e-05 ± 2.2e-06 |  |  |  | 3.26e-05 ± 1.2e-05 | 2.71e-05 ± 1.3e-05 | 120 ± 57
15 | U31A A42G U47A | 0.00933 ± 0.0047 | 0.000345 ± 9.2e-05 |  | 0.00346 ± 0.001 |  | 0.00844 ± 0.0039 | 
16 | U31A G32C | 0.000234 ± 1.1e-05 |  |  | 5.55e-05 ± 1.8e-05 | 0.000141 ± 3e-05 | 0.000194 ± 2.1e-05 | 1950 ± 290
17 | U31C U57A | 2.49e-05 ± 2.1e-06 |  |  |  | 2.32e-05 ± 9.8e-06 |  | 

Row | Variant | kcat [1] [s⁻¹] | self-cleavage kobs at 40 uM GlcN6P [2] [s⁻¹] | self-cleavage kobs at 160 uM GlcN6P [3] [s⁻¹] | self-cleavage kobs at 640 uM GlcN6P [4] [s⁻¹] | self-cleavage kobs at 2500 uM GlcN6P [5] [s⁻¹] | self-cleavage kobs at 10000 uM GlcN6P [6] [s⁻¹] | KM [7] [µM]
18 | U31C A53G C70U | 0.0038 ± 0.00074 | 0.000212 ± 4.6e-05 |  | 0.00265 ± 0.00055 | 0.00272 ± 0.00079 | 0.00339 ± 0.00081 | 620 ± 200
19 | U31G G41C | 0.000172 ± 3.9e-05 |  |  |  | 0.000167 ± 3.6e-05 | 0.000139 ± 2.2e-05 | 
20 | U31C U55G | 0.0059 ± 0.0019 | 0.000126 ± 1.5e-05 | 0.000291 ± 3.8e-05 | 0.00104 ± 0.00018 | 0.0022 ± 0.00033 | 0.00547 ± 0.00061 | 2750 ± 1200
21 | U31C U55C | 0.00793 ± 0.00044 | 8.92e-05 ± 2.1e-05 | 0.000317 ± 6.4e-05 | 0.00116 ± 0.00021 | 0.00284 ± 0.00079 | 0.00585 ± 0.00073 | 3750 ± 300
22 | U31C A64G | 0.00541 ± 0.0022 | 7.83e-05 ± 1.1e-05 | 0.000159 ± 2.1e-05 | 0.00109 ± 0.00013 | 0.00224 ± 0.00024 | 0.00363 ± 0.00047 | 
23 | U31C A64U | < 1e-05 |  |  |  |  |  | 
24 | U31C C61A | 3.08e-05 ± 1.2e-05 |  |  |  |  | < 1e-05 | 
25 | U31G A48U U55G A64G | 0.000666 ± 0.00016 |  |  | 0.0001 ± 2.9e-05 | 0.000437 ± 0.00013 | 0.000484 ± 9.1e-05 | 3200 ± 1500
26 | U31A G40A | 0.00231 ± 0.00021 | 7.32e-05 ± 1.2e-05 | 0.000266 ± 0.00011 | 0.000717 ± 0.00016 | 0.00206 ± 0.00066 | 0.00201 ± 0.00033 | 1250 ± 170
27 | U31C G32A C58A U65G | 4.59e-05 ± 1e-06 |  |  |  |  | 3.72e-05 ± 1.4e-05 | 2320 ± 190
28 | U31C C34G | 1.37e-05 ± 8.9e-07 |  |  |  |  |  | 1370 ± 240
29 | U31C C58U | 2.26e-05 ± 7.2e-06 |  |  |  | 2.64e-05 ± 1.3e-05 |  | 
30 | U31G A53C | 0.00293 ± 0.00056 | 3.19e-05 ± 1.2e-05 | 0.000223 ± 5.6e-05 | 0.000646 ± 0.00015 | 0.00165 ± 0.00028 | 0.00219 ± 0.00037 | 2500 ± 770
31 | U31G C67A | 0.00185 ± 0.00043 | 0.000107 ± 1.8e-05 | 0.000285 ± 6.9e-05 | 0.000858 ± 0.00013 | 0.00123 ± 0.00024 | 0.00286 ± 0.00065 | 740 ± 270
32 | U31G C67U | 0.00291 ± 0.00094 | 0.000124 ± 9.4e-06 | 0.000329 ± 6.4e-05 | 0.00082 ± 0.00012 | 0.00179 ± 0.00027 | 0.00391 ± 0.00047 | 1040 ± 460
33 | U30G U69G | 3.4e-05 ± 1.2e-05 |  | 5.83e-05 ± 1.7e-05 | 6.34e-05 ± 1.3e-05 | 3.55e-05 ± 8.8e-06 |  | 
34 | U31G C34A G60U C67A | < 1e-05 |  |  |  |  |  | 

From the supplement of paper PMC7125110
